Test results reported in the Human Domainome abundance scans (Beltran et al. 2025).
± gives the uncertainty stated by the source.

Assay: abundance fitness (aPCA) (normalised: wild type 0, dead -1); higher = more abundant; growth selection in yeast, the domain comes from the species named
Details: Homo sapiens
For “Lipoamide acyltransferase component of branched-chain alpha-keto acid dehydrogenase complex, mitochondrial L201N, P11182”, the abundance fitness was -0.119 ± 0.093. Work on “Lipoamide acyltransferase component of branched-chain alpha-keto acid dehydrogenase complex, mitochondrial R179L, P11182” yielded an abundance fitness of -0.083 ± 0.042. Substance “Lipoamide acyltransferase component of branched-chain alpha-keto acid dehydrogenase complex, mitochondrial G214N, P11182” has an abundance fitness of -0.41 ± 0.18. In the case of “Lipoamide acyltransferase component of branched-chain alpha-keto acid dehydrogenase complex, mitochondrial G198S, P11182”, the abundance fitness is reported as -0.412 ± 0.04. In the case of Nanos homolog 2 V89S, P60321, the abundance fitness is reported as 0.094 ± 0.066. “Lipoamide acyltransferase component of branched-chain alpha-keto acid dehydrogenase complex, mitochondrial L172S, P11182” gave an abundance fitness of -0.251 ± 0.045. “Lipoamide acyltransferase component of branched-chain alpha-keto acid dehydrogenase complex, mitochondrial G195T, P11182” showed an abundance fitness of -0.587 ± 0.066. “Lipoamide acyltransferase component of branched-chain alpha-keto acid dehydrogenase complex, mitochondrial A173R, P11182” gave an abundance fitness of -0.608 ± 0.04. Work on “Lipoamide acyltransferase component of branched-chain alpha-keto acid dehydrogenase complex, mitochondrial S194T, P11182” yielded an abundance fitness of -0.013 ± 0.06. Work on “Lipoamide acyltransferase component of branched-chain alpha-keto acid dehydrogenase complex, mitochondrial E203K, P11182” yielded an abundance fitness of -0.027 ± 0.055. For “Lipoamide acyltransferase component of branched-chain alpha-keto acid dehydrogenase complex, mitochondrial N207E, P11182”, the abundance fitness was -0.043 ± 0.047. For “Lipoamide acyltransferase component of branched-chain alpha-keto acid dehydrogenase complex, mitochondrial K187P, P11182”, the abundance fitness was 0.022 ± 0.049. “Lipoamide acyltransferase component of branched-chain alpha-keto acid dehydrogenase complex, mitochondrial K187A, P11182” showed an abundance fitness of -0.14 ± 0.04. Work on “Lipoamide acyltransferase component of branched-chain alpha-keto acid dehydrogenase complex, mitochondrial R199L, P11182” yielded an abundance fitness of -0.173 ± 0.04. For “Lipoamide acyltransferase component of branched-chain alpha-keto acid dehydrogenase complex, mitochondrial E203T, P11182”, the abundance fitness was -0.109 ± 0.087. Substance “Lipoamide acyltransferase component of branched-chain alpha-keto acid dehydrogenase complex, mitochondrial E203S, P11182” has an abundance fitness of -0.007 ± 0.067. In the case of “Lipoamide acyltransferase component of branched-chain alpha-keto acid dehydrogenase complex, mitochondrial L209P, P11182”, the abundance fitness is reported as -0.226 ± 0.051. “Lipoamide acyltransferase component of branched-chain alpha-keto acid dehydrogenase complex, mitochondrial L201K, P11182” gave an abundance fitness of -0.256 ± 0.056. Work on “Lipoamide acyltransferase component of branched-chain alpha-keto acid dehydrogenase complex, mitochondrial V192F, P11182” yielded an abundance fitness of -0.31 ± 0.21. For “Lipoamide acyltransferase component of branched-chain alpha-keto acid dehydrogenase complex, mitochondrial E190Q, P11182”, the abundance fitness was -0.069 ± 0.059. Substance “Lipoamide acyltransferase component of branched-chain alpha-keto acid dehydrogenase complex, mitochondrial L172V, P11182” has an abundance fitness of -0.107 ± 0.039. With “Lipoamide acyltransferase component of branched-chain alpha-keto acid dehydrogenase complex, mitochondrial R178Q, P11182” the abundance fitness was -0.024 ± 0.064. With “Lipoamide acyltransferase component of branched-chain alpha-keto acid dehydrogenase complex, mitochondrial N184E, P11182” the abundance fitness was -0.859 ± 0.39. In the case of “Lipoamide acyltransferase component of branched-chain alpha-keto acid dehydrogenase complex, mitochondrial D197L, P11182”, the abundance fitness is reported as -0.337 ± 0.055. With “Lipoamide acyltransferase component of branched-chain alpha-keto acid dehydrogenase complex, mitochondrial I200M, P11182” the abundance fitness was -0.563 ± 0.061. In the case of “Lipoamide acyltransferase component of branched-chain alpha-keto acid dehydrogenase complex, mitochondrial T213L, P11182”, the abundance fitness is reported as -0.185 ± 0.056. With “Lipoamide acyltransferase component of branched-chain alpha-keto acid dehydrogenase complex, mitochondrial L180M, P11182” the abundance fitness was 0.008 ± 0.088. “Lipoamide acyltransferase component of branched-chain alpha-keto acid dehydrogenase complex, mitochondrial V191N, P11182” gave an abundance fitness of -0.699 ± 0.23. “Lipoamide acyltransferase component of branched-chain alpha-keto acid dehydrogenase complex, mitochondrial V192T, P11182” gave an abundance fitness of 0.046 ± 0.052. For “Lipoamide acyltransferase component of branched-chain alpha-keto acid dehydrogenase complex, mitochondrial P175A, P11182”, the abundance fitness was 0.023 ± 0.044. Work on “Lipoamide acyltransferase component of branched-chain alpha-keto acid dehydrogenase complex, mitochondrial I200D, P11182” yielded an abundance fitness of -0.567 ± 0.21. “Lipoamide acyltransferase component of branched-chain alpha-keto acid dehydrogenase complex, mitochondrial G198A, P11182” gave an abundance fitness of -0.517 ± 0.044. Substance “Lipoamide acyltransferase component of branched-chain alpha-keto acid dehydrogenase complex, mitochondrial V191C, P11182” has an abundance fitness of -0.267 ± 0.053. “Lipoamide acyltransferase component of branched-chain alpha-keto acid dehydrogenase complex, mitochondrial D197E, P11182” showed an abundance fitness of -0.098 ± 0.05. “Lipoamide acyltransferase component of branched-chain alpha-keto acid dehydrogenase complex, mitochondrial P175T, P11182” gave an abundance fitness of -0.016 ± 0.052. “Lipoamide acyltransferase component of branched-chain alpha-keto acid dehydrogenase complex, mitochondrial G214S, P11182” showed an abundance fitness of -0.028 ± 0.078. Work on “Lipoamide acyltransferase component of branched-chain alpha-keto acid dehydrogenase complex, mitochondrial S194G, P11182” yielded an abundance fitness of -0.319 ± 0.052. “Lipoamide acyltransferase component of branched-chain alpha-keto acid dehydrogenase complex, mitochondrial G214V, P11182” showed an abundance fitness of -0.08 ± 0.065. “Lipoamide acyltransferase component of branched-chain alpha-keto acid dehydrogenase complex, mitochondrial G214D, P11182” showed an abundance fitness of -0.041 ± 0.071. Substance “Lipoamide acyltransferase component of branched-chain alpha-keto acid dehydrogenase complex, mitochondrial G198M, P11182” has an abundance fitness of -0.57 ± 0.1. Substance “Lipoamide acyltransferase component of branched-chain alpha-keto acid dehydrogenase complex, mitochondrial Q212C, P11182” has an abundance fitness of -0.047 ± 0.052. With “Lipoamide acyltransferase component of branched-chain alpha-keto acid dehydrogenase complex, mitochondrial Y208P, P11182” the abundance fitness was -0.283 ± 0.044. For “Lipoamide acyltransferase component of branched-chain alpha-keto acid dehydrogenase complex, mitochondrial E190R, P11182”, the abundance fitness was -0.199 ± 0.04. In the case of “Lipoamide acyltransferase component of branched-chain alpha-keto acid dehydrogenase complex, mitochondrial T213F, P11182”, the abundance fitness is reported as -0.222 ± 0.069. With “Lipoamide acyltransferase component of branched-chain alpha-keto acid dehydrogenase complex, mitochondrial K196M, P11182” the abundance fitness was -0.142 ± 0.053. “Lipoamide acyltransferase component of branched-chain alpha-keto acid dehydrogenase complex, mitochondrial D197I, P11182” gave an abundance fitness of -1.31 ± 0.15. With “Lipoamide acyltransferase component of branched-chain alpha-keto acid dehydrogenase complex, mitochondrial I186H, P11182” the abundance fitness was -0.679 ± 0.091. For “Lipoamide acyltransferase component of branched-chain alpha-keto acid dehydrogenase complex, mitochondrial S194W, P11182”, the abundance fitness was -0.937 ± 0.069. For “Lipoamide acyltransferase component of branched-chain alpha-keto acid dehydrogenase complex, mitochondrial E203D, P11182”, the abundance fitness was -0.089 ± 0.059.
